Measured values as given in patent US20250171787, “APTAMERS, PHARMACEUTICAL COMPOSITIONS THEREOF, AND METHODS FOR PREVENTING OR TREATING BCMA-ASSOCIATED DISEASES OR CONDITIONS” (Aptapeutics Limited, published 2025).

B1: modified 10-3 (XNA)
DNA: CGTACGGTCGACGCTAGCTGTTGCTGTGCAGGAAGAATGCAGATTC
modifications: 2'-OMe on all cytosines; 3' inverted dT (terminal t in listing is the inverted dT)
B2: 10-7 (ssDNA)
DNA: CGTACGGTCGACGCTAGCTGTTGCTGTGCAGGAAGAATGCAGATTCCCAACATGGATCCGAGCTCC
B3: 10-6 (ssDNA)
DNA: CGTACGGTCGACGCTAGCTGTTGCTGTGCAGGAAGAATGCAGATTCCCAACATGGATCCGA
B4: 10-10 (ssDNA)
DNA: ACGCTAGCTGTTGCTGTGCAGGAAGAATGCAGATTCCCAACATGGATCCGAGCTCCACGTG
B5: 10-12 (ssDNA)
DNA: TTGCTGTGCAGGAAGAATGCAGATTCCCAACATGGATCCGAGCTCCACGTG
B6: 10-4 (ssDNA)
DNA: CGTACGGTCGACGCTAGCTGTTGCTGTGCAGGAAGAATGCAGATTCCCAAC
B7: 10-11 (ssDNA)
DNA: AGCTGTTGCTGTGCAGGAAGAATGCAGATTCCCAACATGGATCCGAGCTCCACGTG
B8: 10-5 (ssDNA)
DNA: CGTACGGTCGACGCTAGCTGTTGCTGTGCAGGAAGAATGCAGATTCCCAACATGGA
B9: 10-9 (ssDNA)
DNA: GGTCGACGCTAGCTGTTGCTGTGCAGGAAGAATGCAGATTCCCAACATGGATCCGAGCTCCACGTG
B10: Sample 1 (ssDNA)
DNA: CGTACGGTCGACGCTAGCAAGTATAGACGTGATGCAGGGAATGCAGACCCAGGGGATCCGAGCTCCACGTG
B11: Sample 7 (ssDNA)
DNA: CGTACGGTCGACGCTAGCCCATGGGAATGCAGACCGCAGGCTGGCTGTAGGAGGGATCCGAGCTCCACGTG
B12: Sample 10 (ssDNA)
DNA: CGTACGGTCGACGCTAGCTGTTGCTGTGCAGGAAGAATGCAGATTCCCAACATGGATCCGAGCTCCACGTG

The binders below were run against T1, BCMA (TNFRSF17) (Homo sapiens, UniProt Q02223 Q02223:1-54) (assay: ELONA). Details: tags: His-tag.
T1 sequence (Q02223 1-54, one chain of several): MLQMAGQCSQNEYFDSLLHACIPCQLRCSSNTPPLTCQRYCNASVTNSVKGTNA

Binder | Kd [nM]
B1 | ~64.2

These binders were tested against T1, BCMA (TNFRSF17) (assay: ELONA; best of the truncations). Details: tags: His-tag; label: 5'-biotin.
Description: (§1) ELONA was used to evaluate the binding affinity of the aptamers. 500 ng of His-tagged recombinant BCMA was used to coat each well of a 96-well microtiter plate via overnight incubation at 4° C. 1 hour of BSA blocking at room temperature was used to cover non-binding sites and was followed by 4 washes with DNA binding buffer for 5 minutes. Varying concentrations of each aptamer was added into each well for 45-minute incubation with gentle shaking. The wells were then washed with wash buffer 4 times, 5 minutes each. 100 μl of streptavidin-HRP (1:10000 in PBST+0.1% BSA) was added into each well for 30-minute incubation. 4 washes with binding buffer were then performed. 50 μl of TMB was added to each well for a 20-minute incubation. 50 μl of 2M H₂SO₄ was used to stop the reaction, followed by measurement of 450 nm absorbance.
(§2) Their binding affinity was evaluated via ELONA. Binding curves were plotted, followed by calculation of the binding affinity.

Binder | Kd [nM]
CGTACGGTCGACGCTAGCTGTTGCTGTGCAGGAAGAATGCAGATTC (ssDNA) [10-3] | 59

The binders below were run against T1, BCMA (TNFRSF17) (assay: ELONA; random region only). Details: tags: His-tag; label: 5'-biotin.
Description: as §1, §2

Binder | Kd [nM]
TGTTGCTGTGCAGGAAGAATGCAGATTCCCAACAT (ssDNA) [10-8] | 184

These binders were tested against T1, BCMA (TNFRSF17) (assay: ELONA). Details: tags: His-tag; label: 5'-biotin.
Description: as §1, §2

Binder | Kd [nM]
B2 | 65
B3 | 364
B4 | 1550
B5 | 542
CGTACGGTCGACGCTAGCTGTTGCTGTGCAGGAAG (ssDNA) [10-1] | 1290
B6 | 130
B7 | 1590
B8 | 579
CGTACGGTCGACGCTAGCTGTTGCTGTGCAGGAAGAATGCA (ssDNA) [10-2] | 240
B9 | 451

These binders were tested against T1, BCMA (TNFRSF17) (assay: ELONA; Kd determined but value only in FIG. 2). Details: tags: His-tag; label: 5'-biotin.

Binder | binding result
B10 | binds
B11 | binds
B12 | binds
